Experimental findings from US20250388673A1 (HIFIBIO, published 2025) are described below.

Changes are numbered by the printed parent chain.

This assay concerns the target T1, human BTLA (human, UniProt Q7Z6A9 31-289).
T1 construct: also called hBTLA; HEK293.hBTLA
T1 sequence: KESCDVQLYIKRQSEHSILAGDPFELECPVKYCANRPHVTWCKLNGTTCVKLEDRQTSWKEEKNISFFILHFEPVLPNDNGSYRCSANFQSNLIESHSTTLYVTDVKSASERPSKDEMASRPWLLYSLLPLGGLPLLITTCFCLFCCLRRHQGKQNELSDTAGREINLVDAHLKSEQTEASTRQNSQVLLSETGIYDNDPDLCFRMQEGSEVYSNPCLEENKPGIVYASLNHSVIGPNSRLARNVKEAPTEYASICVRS
The experiment in a line: flow cytometry, HEK293 cells overexpressing human BTLA. How it is done: HEK293 cells overexpressing human BTLA and Expi293 cells overexpressing cynomolus BTLA were incubated with different concentrations of humanized anti-BTLA antibodies. Anti-BTLA antibody binding to target cells were quantified with an AF647-conjugated anti-human IgG Fc secondary antibody by flow cytometry.
In general terms: In flow cytometry, cells or beads pass a laser one at a time.

B1: HFB6-4hz3-hG1 (antibody, human IgG1, V domains shown)
VH: EVQLVESGGGLVQPGRSLRLSCTTSGFNIKDTYIHWFRQAPGKGLEWVGRNDPANGNTKYTASFKGRATISADGSKSIAYLQMNSLKTEDTAVYYCASYEGYYERFGYWGQGTLVTVSS
VL: DIQMTQSPSSLSASVGDRVTITCRSSQSLLDRDGKSYLNWLQQKPGKAPKRLIYLVSKLDSGVPSRFSGSGSGTDFTLTISSLQPEDFATYYCWQDTHFPYTFGQGTKLEIK
notes: Humanized variant of HFB6-4, human IgG1 (hG1)
Regarding B1, the binding result was “binds”.

B2: HFB6-4hz6-hG1 (antibody, human IgG1, V domains shown)
VH: EVQLVQSGAEVKKPGESLKISCKTSGFNIKDTYIHWVRQMPGKGLEWIGRNDPANGNTKYSPSFQGQVTISADKSISTAYLQLSSLKASDTAMYYCASYEGYYERFGYWGQGTLVTVSS
VL: B1 VL
notes: as for B1
Take B2: the binding result is recorded as “binds”.

B3: HFB6-4hz9-hG1 (antibody, human IgG1, V domains shown)
VH: B1 VH
VL: DVVMTQSPLSLPVTLGQPASISCRSSQSLLDRDGKTYLNWLQQRPGQSPRRLIYLVSKRDSGVPDRFSGSGSGTDFTLKISRVEAEDVGVYYCWQDTHFPYTFGQGTKLEIK
notes: as for B1
With B3, the binding result was “binds”.

B4: HFB6-4hz5-hG1 (antibody, human IgG1, V domains shown)
VH: QVQLQESGPGLVKPSGTLSLTCAVSGFNIKDTYIHWVRQPPGKGLEWIGRNDPANGNTKYNPSFKSRATISADKSKNQASLKLSSVTAADTAVYYCASYEGYYERFGYWGQGTLVTVSS
VL: B1 VL
notes: as for B1
Take B4: the binding result was “binds”.

B5: HFB6-4hz15-hG1 (antibody, human IgG1, V domains shown)
VH: B1 VH
VL: EIVLTQSPGTLSLSPGERATLSCRSSQSLLDRDGKTYLNWLQQKPGQAPRRLIYLVSKLDSGIPDRFSGSGSGTDFTLTISRLEPEDFAVYYCWQDTHFPYTFGQGTKLEIK
notes: as for B1
For the molecule B5, the binding result is reported as “binds”.

B6: HFB6-4hz10-hG1 (antibody, human IgG1, V domains shown)
VH: EVQLVESGGGLVQPGGSLKLSCATSGFNIKDTYIHWVRQASGKGLEWIGRNDPANGNTKYAASFKGRATISADDSKNTAYLQLNSLKTEDTAVYYCASYEGYYERFGYWGQGTLVTVSS
VL: B3 VL
notes: as for B1
For the molecule B6, the binding result is “binds”.

B7: HFB6-4hz16-hG1 (antibody, human IgG1, V domains shown)
VH: B6 VH
VL: B5 VL
notes: as for B1
Consider B7, for which the binding result was “binds”.

B8: HFB6-4hz4-hG1 (antibody, human IgG1, V domains shown)
VH: B6 VH
VL: B1 VL
notes: as for B1
With B8, the binding result is “binds”.

B9: HFB6-4hz17-hG1 (antibody, human IgG1, V domains shown)
VH: B4 VH
VL: B5 VL
notes: as for B1
As to B9, the binding result was “binds”.

B10: HFB6-4hz18-hG1 (antibody, human IgG1, V domains shown)
VH: B2 VH
VL: B5 VL
notes: as for B1
As for B10, the binding result is reported as “binds”.

B11: HFB6-5-hG1 (human-mouse chimeric monoclonal antibody) (antibody, human IgG1, kappa, V domains shown)
VH: EVQLQQSGAELVKPGASVKLSCTASGVNIKDTYMYWVKQRPEQGLEWIGRIDPANGYTRYDPKFQGKATITADTSSNTAHLQLSSLTSEDAAVYYCAVYDGYYESFDVWGAGTTVTVSS
VL: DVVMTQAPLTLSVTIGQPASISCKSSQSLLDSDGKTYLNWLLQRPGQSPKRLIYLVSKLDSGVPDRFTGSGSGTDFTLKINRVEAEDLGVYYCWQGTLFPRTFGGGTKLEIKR
notes: also called HFB-5; HFB6-5 parental antibody
Consider B11, for which the binding result is on record as “binds”.

B12: HFB6-5hz21-hG1 (antibody, human IgG1, V domains shown)
VH: EVQLVESGGGLVQPGRSLRLSCTASGVNIKDTYMYWVRQAPGKGLEWVGRIDPANGYTRYTASFKGRATISADGSKSIAYLQMNSLKTEDTAVYYCAVYDGYYESFDVWGQGTLVTVSS
VL: DIVMTQSPDSLAVSLGERATINCKSSQSLLDSDGKTYLNWLQQKPGQSPKRLIYLVSKLDSGVPDRFSGSGSGTDFTLTISSVQAEDLAVYYCWQGTLFPRTFGQGTKLEIK
notes: Humanized variant of HFB6-5, human IgG1 (hG1)
For the molecule B12, the binding result is on record as “binds”.

B13: HFB6-4hz19-hG1 (antibody, human IgG1, V domains shown)
VH: QVQLVQSGAEVKKPGSSVKVSCKTSGFNIKDTYIHWVRQAPGQGLEWIGRNDPANGNTKYAQKFQGRATITADESTSTAYMELSSLRSEDTAVYYCASYEGYYERFGYWGQGTLVTVSS
VL: B12 VL with S32R, V83L, G96D, L98H, R101Y
notes: as for B1
As to B13, the binding result is “binds”.

B14: HFB6-5hz24-hG1 (antibody, human IgG1, V domains shown)
VH: EVQLVQSGAEVKKPGESLKISCKGSGVNIKDTYMYWVRQMPGKGLEWIGRIDPANGYTRYSPSFQGQVTISADKSISTAYLQLSSLKASDTAMYYCAVYDGYYESFDVWGQGTLVTVSS
VL: B12 VL
notes: as for B12
For the molecule B14, the binding result was “binds”.

B15: HFB6-5hz23-hG1 (antibody, human IgG1, V domains shown)
VH: QVQLQESGPGLVKPSGTLSLTCAASGVNIKDTYMYWVRQPPGKGLEWIGRIDPANGYTRYNPSFKSRATISADKSKNQASLKLSSVTAADTAVYYCAVYDGYYESFDVWGQGTLVTVSS
VL: B12 VL
notes: as for B12
Take B15: the binding result is recorded as “binds”.

B16: HFB6-4hz20-hG1 (antibody, human IgG1, V domains shown)
VH: B13 VH with S16A, A68V, I70M, E74T, A79V
VL: B12 VL with S32R, V83L, G96D, L98H, R101Y
notes: as for B1
On to B16, for which the binding result is recorded as “binds”.

B17: HFB6-5hz22-hG1 (antibody, human IgG1, V domains shown)
VH: B12 VH with R16G, R19K, T23A, P41S, V48I, T61A, G74D, S77N, I78T, M83L
VL: B12 VL
notes: as for B12
Take B17: the binding result is “binds”.

B18: HFB6-4hz7-hG1 (antibody, human IgG1, V domains shown)
VH: B13 VH
VL: B3 VL
notes: as for B1
Regarding B18, the binding result is reported as “binds”.

B19: HFB6-4hz13-hG1 (antibody, human IgG1, V domains shown)
VH: B13 VH
VL: B5 VL
notes: as for B1
On to B19, for which the binding result is given as “binds”.

B20: HFB6-4hz12-hG1 (antibody, human IgG1, V domains shown)
VH: B2 VH
VL: B3 VL
notes: as for B1
In the case of B20, the binding result is on record as “binds”.

B21: HFB6-4hz11-hG1 (antibody, human IgG1, V domains shown)
VH: B4 VH
VL: B3 VL
notes: as for B1
As for B21, the binding result was “binds”.

B22: HFB6-4hz8-hG1 (antibody, human IgG1, V domains shown)
VH: B13 VH with S16A, A68V, I70M, E74T, A79V
VL: B3 VL
notes: as for B1
As for B22, the binding result is listed as “binds”.

B23: HFB6-4hz14-hG1 (antibody, human IgG1, V domains shown)
VH: B13 VH with S16A, A68V, I70M, E74T, A79V
VL: B5 VL
notes: as for B1
With B23, the binding result is given as “binds”.
